Results published in patent US20240218024A1, “METHODS AND COMPOSITIONS FOR TREATMENT OF VIRAL INFECTION” (TECHNION RESEARCH & DEVELOPMENT FOUNDATION LIMITED, priority 2021, published 2024).

Tested on: BL21-DE3 E. coli cells
Experiment: slncRNA and tdPCP-mCherry expression in bacteria (puncta, burst analysis, flow cytometry)
Type: cell-based
Settings: slncRNA co-expressed with tdPCP-mCherry, overnight induction

B1: PCP-4×/QCP-5×: class II slncRNA, four native PCP binding sites and five native QB coat protein hairpins (SEQ ID NO: 29) (nucleic acid)
chain: GAGAAACCTAGGCGATTATGACGTTATTCTACTTTGATTGTGATGCATGTCTAAGACAGCATCGCCTGCTGGTCGTGACTAAGGAGTTTATATGGAAACCCTTACGAGACAATGCTACCTTACCGGTCGGGCCCACTTGTTTTTACCCATGATGCATGTCTAAGACAGCATCGCCTGCTGGTCGTGACTAAGGAGTTTATATGGAAACCCTTAGAAACAGCCGTCGCCTTGAAGCCGAGAACAATGCATGTCTAAGACAGCATATGGATTGCCTGTCTGTTAAGGAGTTTATATGGAAACCCTTACATCAGGCTTCGCAGTATGCAACGCTTGCGATGCATGTCTAAGACAGCATTTCACCGCTTTCCTAAGTAAGGAGTTTATATGGAAACCCTTAGTACTAACTCGCAGATGCATGTCTAAGACAGCATCAGAAACGTCACGTCCTGGCTGTCGA
  puncta formation in cells: formation of bright puncta at the cell poles
